# Patent US20250043019A1 (Janssen / Centocor, published 2025)
# T1: human CD20 on the cell surface (human, UniProt P11836 1-297)
# T1 sequence (looked up): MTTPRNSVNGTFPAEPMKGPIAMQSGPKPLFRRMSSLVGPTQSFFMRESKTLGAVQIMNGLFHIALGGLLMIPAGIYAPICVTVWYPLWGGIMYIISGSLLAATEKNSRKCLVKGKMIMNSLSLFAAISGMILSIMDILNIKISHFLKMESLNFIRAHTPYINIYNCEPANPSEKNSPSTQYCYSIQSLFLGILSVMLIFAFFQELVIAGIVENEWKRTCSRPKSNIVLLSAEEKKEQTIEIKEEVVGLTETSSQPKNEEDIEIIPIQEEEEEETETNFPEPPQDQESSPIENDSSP
# B1: mosunetuzumab (bispecific antibody)
# chain 1: not shown
# chain 2: DIQMTQSPSSLSASVGDRVTITCRASSSVSYMHWYQQKPGKAPKPLIYAPSNLASGVPSRFSGSGSGTDFTLTISSLQPEDFATYYCQQWSFNPPTFGQGTKVEIKRTVAAPSVFIFPPSDEQLKSGTASVVCLLNNFYPREAKVQWKVDNALQSGNSQESVTEQDSKDSTYSLSSTLTLSKADYEKHKVYACEVTHQGLSSPVTKSFNRGEC
# chain 3: EVQLVQSGAEVKKPGASVKVSCKASGYTFTNYYIHWVRQAPGQGLEWIGWIYPGDGNTKYNEKFKGRATLTADTSTSTAYLELSSLRSEDTAVYYCARDSYSNYYFDYWGQGTLVTVSSASTKGPSVFPLAPSSKSTSGGTAALGCLVKDYFPEPVTVSWNSGALTSGVHTFPAVLQSSGLYSLSSVVTVPSSSLGTQTYICNVNHKPSNTKVDKKVEPKSCDKTHTCPPCPAPELLGGPSVFLFPPKPKDTLMISRTPEVTCVVVDVSHEDPEVKFNWYVDGVEVHNAKTKPREEQYGSTYRVVSVLTVLHQDWLNGKEYKCKVSNKALPAPIEKTISKAKGQPREPQVYTLPPSREEMTKNQVSLSCAVKGFYPSDIAVEWESNGQPENNYKTTPPVLDSDGSFFLVSKLTVDKSRWQQGNVFSCSVMHEALHNHYTQKSLSLSPGK
# chain 4: not shown
# B2: 79C3B601 CD79bxCD3 bispecific antibody (bispecific antibody, human IgG1, kappa, L234A L235A)
# heavy: QVQLQESGPGLVKPSETLSLTCSVSGASISSFYWSWIRQPADEGLEWIGRISPSGKTNYIPSLKSRIIMSLDASKNQFSLRLNSVTAADTAMYYCARGEYSGTYSYSFDVWGQGTMVTVSSASTKGPSVFPLAPSSKSTSGGTAALGCLVKDYFPEPVTVSWNSGALTSGVHTFPAVLQSSGLYSLSSVVTVPSSSLGTQTYICNVNHKPSNTKVDKKVEPKSCDKTHTCPPCPAPEAAGGPSVFLFPPKPKDTLMISRTPEVTCVVVSVSHEDPEVKFNWYVDGVEVHNAKTKPREEQYNSTYRVVSVLTVLHQDWLNGKEYKCKVSNKALPAPIEKTISKAKGQPREPQVYTLPPSREEMTKNQVSLSCAVKGFYPSDIAVEWESNGQPENNYKTTPPVLDSDGSFFLVSKLTVDKSRWQQGNVFSCSVMHEALHNRFTQKSLSLSPGK
# light: DIVMTQSPLSLSVTPGEPASISCRSSESLLDSEDGNTYLDWFLQKPGQSPQLLIYTLSYRASGVPDRFSGSGSDTDFTLHISSLEAEDVGLYYCMQRMEFPLTFGQGTKVEIKRTVAAPSVFIFPPSDEQLKSGTASVVCLLNNFYPREAKVQWKVDNALQSGNSQESVTEQDSKDSTYSLSSTLTLSKADYEKHKVYACEVTHQGLSSPVTKSFNRGEC
# chain: EIVLTQSPATLSASPGERVTLSCSASSSVSYMNWYQQKPGQAPRRWIYDSSKLASGVPARFSGSGSGRDYTLTISSLEPEDFAVYYCQQWSRNPPTFGGGTKVEIKGGSEGKSSGSGSESKSTGGSQVQLVQSGAEVKKPGSSVKVSCKASGYTFTRSTMHWVKQAPGQGLEWIGYINPSSAYTNYNQKFQGRVTLTADKSTSTAYMELSSLRSEDTAVYYCASPQVHYDYAGFPYWGQGTLVTVSSEPKSSDKTHTCPPCPAPEAAGGPSVFLFPPKPKDTLMISRTPEVTCVVVSVSHEDPEVKFNWYVDGVEVHNAKTKPREEQYNSTYRVVSVLTVLHQDWLNGKEYKCKVSNKALPAPIEKTISKAKGQPREPQVYTLPPSREEMTKNQVSLWCLVKGFYPSDIAVEWESNGQPENNYKTTPPVLDSDGSFFLYSKLTVDKSRWQQGNVFSCSVMHEALHNHYTQKSLSLSPGK
# notes: IgG1, knobs-in-holes, Fc-gamma-receptor-silencing mutations; HC1/LC = CD79b Fab arm, third chain = CD3 scFv-Fc arm; also called 79C3B601 bsAb; CD9B374 x CD3B2030-N106A
# Columns and labels:
# [1] = target: T1, human CD20 on the cell surface; experiment: cell-based or functional assay
# [2] = target: human CD3 on primary T cells (human, UniProt P07766 23-207); experiment: cell-based or functional assay
# Sequence of human CD3 on primary T cells (P07766 23-207): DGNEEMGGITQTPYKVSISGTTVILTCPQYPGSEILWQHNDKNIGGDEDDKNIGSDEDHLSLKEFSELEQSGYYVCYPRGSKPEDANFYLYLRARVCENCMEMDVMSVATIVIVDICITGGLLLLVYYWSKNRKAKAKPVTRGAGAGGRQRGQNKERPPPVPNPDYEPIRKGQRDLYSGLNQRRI
# [3] = target: T2, cynomolgus monkey CD79b antigen (cynomolgus monkey); experiment: SPR Biacore 8k, cyno CD79b injected up to 3000 nM
# T2 construct: also called cyno CD79b; CD9W1.001
# Experimental: General Protocol for SPR Affinity Assessment: Affinity assessment of the bispecific trispecific constructs against human CD79b were measure using recombinantly expressed extracellular domain of CD79b short and long isoforms (CD9W7.001 and CD9W8.001, respectively) by Surface Plasmon Resonance (SPR) using a Biacore 8k SPR system (Biacore) at 25° C. in HBSP+ buffer. Cross-reactivity of the same antibody panel was also assessed against cyno and mouse antigens (CD9W1.001 and CD9W105.001, respectively). Briefly, a C1 sensor chip was immobilized with anti-human Fc (target immobilization levels of >400 RU) using vendor recommended amino coupling protocol. […] The association and dissociation phases were measured for 2 or 3 minutes and 30 minutes, respectively.
# The raw binding sensorgrams were processed using Biacore Insight software (Biacore) by double-referencing and the processed sensorgrams were analyzed for cross-reactivity and fitted to a 1:1 Langmuir model to obtain on-rates, off-rates and affinities.
Binder,"EC50, autologous B-cell depletion, donor D198013 [1]","EC50, autologous B-cell depletion, donor D221837 [1]","EC50, autologous B-cell depletion, donor D329465 [1]","EC50 of CD8 T-cell activation, CARNAVAL, E:T 1:1, 48 hours [2]","EC50 of CD8 T-cell activation, CARNAVAL, E:T 1:1, 72 hours [2]","EC50 of CD8 T-cell activation, CARNAVAL, E:T 5:1, 48 hours [2]","EC50 of CD8 T-cell activation, CARNAVAL, E:T 5:1, 72 hours [2]","EC50 of CD8 T-cell activation, HT, E:T 5:1, 48 hours [2]","EC50 of CD8 T-cell activation, HT, E:T 5:1, 72 hours [2]","EC50 of CD8 T-cell activation, JEKO-1, E:T 1:1, 48 hours [2]","EC50 of CD8 T-cell activation, JEKO-1, E:T 1:1, 72 hours [2]","EC50 of CD8 T-cell activation, JEKO-1, E:T 5:1, 48 hours [2]","EC50 of CD8 T-cell activation, JEKO-1, E:T 5:1, 72 hours [2]","EC50 of CD8 T-cell activation, OCI-Ly10, E:T 1:1, 48 hours [2]","EC50 of CD8 T-cell activation, OCI-Ly10, E:T 1:1, 72 hours [2]","EC50 of CD8 T-cell activation, OCI-Ly10, E:T 5:1, 48 hours [2]","EC50 of CD8 T-cell activation, OCI-Ly10, E:T 5:1, 72 hours [2]","EC50 of CD8 T-cell activation, WILL-2, E:T 5:1, 48 hours [2]","EC50 of CD8 T-cell activation, WILL-2, E:T 5:1, 72 hours [2]",Kd [3]
B1,0.2 nM,0.5 nM,0.2 nM,0.053 nM,0.013 nM,0.038 nM,0.021 nM,0.148 nM,0.078 nM,0.022 nM,0.021 nM,0.043 nM,0.019 nM,0.045 nM,0.035 nM,0.256 nM,0.12 nM,1.24 nM,1.27 nM,
B2,,,,,,,,,,,,,,,,,,,,> 3000 nM
